Read-outs that look alike come from different tables or passages of the source.
B1: 1Ebox (dsDNA)
DNA 1: AGCTTAACTGACCACGTGGTCAACTA
DNA 2: TAGTTGACCACGTGGTCAGTTAAGCT
B2: 1 NC Ebox CATCTG (table: NC Ebox-TA; text: NCE-TC) (dsDNA)
DNA 1: AGCTTAACTGACCATCTGGTCAACTA
DNA 2: TAGTTGACCAGATGGTCAGTTAAGCT
B3: 1 NC Ebox CATATG (table: NC Ebox-TC; text: NCE-TA) (dsDNA)
DNA 1: AGCTTAACTGACCATATGGTCAACTA
DNA 2: TAGTTGACCATATGGTCAGTTAAGCT

Tests used:
N-myc;MAX [1] = target: T1, N-myc;MAX (human;human, UniProt P04198;P61244 1-464;1-160, |); test: fluorescence anisotropy
N-myc;MAX [2] = target: T1, N-myc;MAX; test: fluorescence anisotropy; remark: listed apart in the source

T1 sequence (P04198 whole entry, chain 1 of 2): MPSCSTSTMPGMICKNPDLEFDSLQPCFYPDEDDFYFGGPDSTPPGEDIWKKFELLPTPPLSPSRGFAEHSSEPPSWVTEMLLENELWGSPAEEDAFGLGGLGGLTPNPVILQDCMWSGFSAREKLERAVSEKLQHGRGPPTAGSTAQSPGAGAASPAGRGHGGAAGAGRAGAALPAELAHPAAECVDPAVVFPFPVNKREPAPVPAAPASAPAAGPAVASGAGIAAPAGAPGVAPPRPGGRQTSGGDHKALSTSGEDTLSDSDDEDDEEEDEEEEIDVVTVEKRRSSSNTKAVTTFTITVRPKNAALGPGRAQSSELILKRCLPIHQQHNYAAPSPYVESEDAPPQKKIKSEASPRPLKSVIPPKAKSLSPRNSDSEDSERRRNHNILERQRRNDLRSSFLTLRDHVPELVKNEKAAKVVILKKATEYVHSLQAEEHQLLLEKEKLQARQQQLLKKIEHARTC
T1 sequence (P61244 whole entry, chain 2 of 2): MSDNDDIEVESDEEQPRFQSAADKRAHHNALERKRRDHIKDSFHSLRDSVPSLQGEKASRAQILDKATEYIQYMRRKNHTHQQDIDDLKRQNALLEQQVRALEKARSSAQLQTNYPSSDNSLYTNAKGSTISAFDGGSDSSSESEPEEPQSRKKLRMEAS

Row | Binder | Kd (N-myc;MAX [1]) [nM] | Kd (N-myc;MAX [2]) [nM]
1 | B1 | ~150 | 
2 | B2 |  | ~655
3 | B3 |  | ~735

Reference: article PMC11479839
